Test results reported in the supplement of paper PMC10126150.
± gives the standard deviation of the averaged measurements.

Test system: ATP
Test: switch fluorescence ratio, 500 uM ATP over buffer (Cy3 cluster intensity, sum of 5 cycles each) (fold (ratio)); higher = stronger signal-on switching upon ATP binding; sequences stand for … in TCGTCGGCAGCGTCAGATGTGTATAAGAGACAGTTTTTTTTTTTTTTTTTTTTTTTTT…TC
Conditions: aptamer strand: ATP DNA aptamer (quencher-CACCTGGGGGAGTATTGCGGAGGAAGG + anchor), 100 nM annealed; ATP concentration: 500 uM
How it was run: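 Exposure to 500 uM ATP lasted 15 min at 22 °C before imaging, and a selection-buffer image was taken beforehand, for Cy3-labelled switching-strand clusters on a modified Illumina MiSeq flow-cell annealed to 100 nM quencher-labelled ATP aptamer. Five buffer/ATP cycles were run with NaOH stripping and re-annealing between them. The fluorescence ratio per cluster is summed target-cycle over summed buffer-cycle Cy3 intensity, averaged per switch-domain sequence. Clusters outside 100-1000 RFU were excluded.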

| Sequence | switch fluorescence ratio |
| --- | --- |
| ATTCACAGTT | 1.03 ± 0.033 |
| ATTCACCCGC | 1.48 ± 0.13 |
| ATTCAGAAGA | 1.07 ± 0.12 |
| ATTCAGCCGC | 1.62 ± 0.083 |
| ATTCAGGTTT | 0.992 ± 0.026 |
| ATTCATAGGC | 1 ± 0.052 |
| ATTCATGATA | 0.975 ± 0.013 |
| ATTCATGTTG | 0.996 ± 0.014 |
| ATTCCGTATT | 1.44 ± 0.68 |
| ATTCCTCGAC | 1.67 ± 0.11 |
| ATTCCTTTTT | 0.9996 ± 0.0094 |
| ATTCGAATCG | 1.05 ± 0.12 |
| ATTCGAATGT | 0.9994 ± 0.0013 |
| ATTCGAGCTG | 1.002 ± 0.0034 |
| ATTCGAGGTT | 0.987 ± 0.071 |
| ATTCGCATGT | 1.15 ± 0.04 |
| ATTCGCTGCT | 1 ± 0.02 |
| ATTCGGAGGG | 0.984 ± 0.011 |
| ATTCGGGATA | 1 ± 0.02 |
| ATTCGGGATG | 0.979 ± 0.017 |
| ATTCGGGCCA | 1.01 ± 0.037 |
| ATTCGGTAGT | 1 ± 0.013 |
| ATTCGGTTAT | 1.01 ± 0.045 |
| ATTCGTATAT | 0.969 ± 0.051 |
| ATTCGTCAAT | 1.18 ± 0.13 |

| Sequence | switch fluorescence ratio |
| --- | --- |
| ATTCGTCTAG | 0.989 ± 0.012 |
| ATTCGTGTTT | 0.978 ± 0.017 |
| ATTCGTTTGC | 1 ± 0.057 |
| ATTCTCAGTG | 1.01 ± 0.038 |
| ATTCTCCATT | 1.0229 ± 0.00088 |
| ATTCTGACCG | 1.09 ± 0.068 |
| ATTCTGAGGC | 1.03 ± 0.045 |
| ATTCTTCGC | 1.06 ± 0.011 |
| ATTCTTTCTT | 1.002 ± 0.0018 |
| ATTGAAGCTT | 1.009 ± 0.0089 |
| ATTGAAGGGA | 1.018 ± 0.0059 |
| ATTGAAGGGG | 0.975 ± 0.016 |
| ATTGAATGGT | 1.006 ± 0.0027 |
| ATTGACATAT | 1.054 ± 0.0046 |
| ATTGACGTGT | 1 ± 0.035 |
| ATTGACTGAT | 1.03 ± 0.044 |
| ATTGAGAGAT | 1.03 ± 0.014 |
| ATTGAGCTGT | 0.9812 ± 0.0062 |
| ATTGAGGCAA | 1.22 ± 0.066 |
| ATTGAGGGGG | 1.04 ± 0.052 |
| ATTGAGGGTT | 0.985 ± 0.019 |
| ATTGAGTAA | 0.976 ± 0.025 |
| ATTGAGTAGC | 1.01 ± 0.032 |
| ATTGAGTTTA | 0.99883 ± 7e-05 |
| ATTGATATTT | 0.998 ± 0.019 |

| Sequence | switch fluorescence ratio |
| --- | --- |
| ATTGATCTCG | 1.04 ± 0.083 |
| ATTGATGGGC | 0.9644 ± 0.0037 |
| ATTGATGTTC | 0.99 ± 0.053 |
| ATTGATTAGT | 1.12 ± 0.18 |
| ATTGATTGAC | 1.05 ± 0.043 |
| ATTGATTGAG | 0.986 ± 0.022 |
| ATTGATTTAA | 0.9989 ± 0.0086 |
| ATTGCAAATC | 1.027 ± 0.0094 |
| ATTGCAGTTT | 0.986 ± 0.022 |
| ATTGCCACGG | 1.033 ± 0.0089 |
| ATTGCCGCTC | 1.04 ± 0.036 |
| ATTGCGATTC | 1.159 ± 0.01 |
| ATTGCGGTCA | 1.01 ± 0.048 |
| ATTGCTCGA | 0.993 ± 0.02 |
| ATTGCTGGCG | 0.939 ± 0.039 |
| ATTGGAAGGC | 0.967 ± 0.017 |
| ATTGGACGTT | 0.988 ± 0.016 |
| ATTGGAGCAG | 1.055 ± 0.0098 |
| ATTGGATCGA | 1.01 ± 0.054 |
| ATTGGATCGG | 0.9956 ± 0.0095 |
| ATTGGCAAAA | 1.01 ± 0.035 |
| ATTGGCATGC | 0.996 ± 0.027 |
| ATTGGGCGAG | 0.993 ± 0.013 |
| ATTGGGGGGA | 0.982 ± 0.018 |
| ATTGGGGGGG | 1.02 ± 0.044 |

| Sequence | switch fluorescence ratio |
| --- | --- |
| ATTGGGGTG | 1.03 ± 0.11 |
| ATTGGGGTTC | 1.01 ± 0.067 |
| ATTGGGGTTG | 1 ± 0.017 |
| ATTGGGTATT | 0.9749 ± 0.007 |
| ATTGGGTCTA | 0.978 ± 0.021 |
| ATTGGGTGTC | 0.985 ± 0.039 |
| ATTGGTAACG | 0.9981 ± 0.0037 |
| ATTGGTAGGC | 1.03 ± 0.023 |
| ATTGGTAGTT | 0.9687 ± 0.0067 |
| ATTGGTCAAG | 0.985 ± 0.039 |
| ATTGGTCTGC | 1.02 ± 0.04 |
| ATTGGTGTCT | 1.01 ± 0.034 |
| ATTGGTTGTT | 1.01 ± 0.036 |
| ATTGGTTTAA | 0.9981 ± 0.002 |
| ATTGGTTTCG | 0.9835 ± 0.0051 |
| ATTGGTTTGT | 0.998 ± 0.013 |
| ATTGGTTTTT | 1.07 ± 0.19 |
| ATTGTACAGT | 1.02 ± 0.025 |
| ATTGTACGCT | 1.015 ± 0.0056 |
| ATTGTAGAGC | 1.02 ± 0.01 |
| ATTGTAGGGA | 1 ± 0.015 |
| ATTGTGATCT | 0.989 ± 0.021 |
| ATTGTGCATT | 0.979 ± 0.052 |
| ATTGTGCGTA | 0.9711 ± 0.0057 |
| ATTGTGTCAC | 1 ± 0.028 |

| Sequence | switch fluorescence ratio |
| --- | --- |
| ATTGTGTCTA | 0.9935 ± 0.007 |
| ATTGTGTCTT | 0.99 ± 0.013 |
| ATTGTGTGGG | 0.999 ± 0.036 |
| ATTGTGTTAG | 1.03 ± 0.055 |
| ATTGTTAATT | 1.013 ± 0.01 |
| ATTGTTACGG | 0.998 ± 0.024 |
| ATTGTTCTCC | 1.04 ± 0.057 |
| ATTGTTGCTG | 0.993 ± 0.061 |
| ATTGTTTCTA | 1 ± 0.014 |
| ATTGTTTTGA | 0.9818 ± 0.0088 |
| ATTGTTTTTG | 1.01 ± 0.026 |
| ATTTAAATGT | 1.01 ± 0.023 |
| ATTTAAATTA | 1.01 ± 0.017 |
| ATTTAACCCG | 1.02 ± 0.044 |
| ATTTAACGGG | 1.006 ± 0.0056 |
| ATTTAAGCTT | 1.07 ± 0.048 |
| ATTTAAGGCT | 0.99 ± 0.012 |
| ATTTAATTAC | 1.02 ± 0.0013 |
| ATTTACAGAT | 1.04 ± 0.03 |
| ATTTACATTT | 1.02 ± 0.011 |
| ATTTACCGAA | 1.05 ± 0.019 |
| ATTTACTCAT | 1.038 ± 0.0012 |
| ATTTAGGATG | 1.01 ± 0.021 |
| ATTTAGGCTG | 1.062 ± 0.0089 |
| ATTTAGTTTT | 0.976 ± 0.013 |

| Sequence | switch fluorescence ratio |
| --- | --- |
| ATTTATCTTT | 1 ± 0.032 |
| ATTTATTATG | 0.989 ± 0.038 |
| ATTTATTGAA | 0.996 ± 0.027 |
| ATTTATTTCT | 1.03 ± 0.064 |
| ATTTCAACGT | 0.9879 ± 0.0034 |
| ATTTCAATTT | 1.01 ± 0.02 |
| ATTTCAGCTG | 0.982 ± 0.027 |
| ATTTCGAGTT | 0.972 ± 0.014 |
| ATTTCGATTA | 0.9965 ± 0.0067 |
| ATTTCGTGGT | 0.9759 ± 0.0096 |
| ATTTCGTTTC | 1.05 ± 0.1 |
| ATTTGAAGAG | 1.01 ± 0.014 |
| ATTTGAAGCG | 0.998 ± 0.024 |
| ATTTGAAGGC | 0.9629 ± 0.0082 |
| ATTTGACTCT | 0.986 ± 0.021 |
| ATTTGAGCTG | 0.947 ± 0.13 |
| ATTTGAGGAT | 0.972 ± 0.027 |
| ATTTGAGGTT | 1.006 ± 0.005 |
| ATTTGATATG | 0.965 ± 0.031 |
| ATTTGATTCA | 0.997 ± 0.012 |
| ATTTGCCCGA | 1 ± 0.012 |
| ATTTGCGTTT | 0.999 ± 0.019 |
| ATTTGGAGG | 0.986 ± 0.013 |
| ATTTGGATCT | 0.9725 ± 0.0068 |
| ATTTGGGTTA | 1.01 ± 0.019 |

| Sequence | switch fluorescence ratio |
| --- | --- |
| ATTTGGGTTT | 0.992 ± 0.027 |
| ATTTGGTAAA | 0.9859 ± 0.009 |
| ATTTGGTAAT | 0.952 ± 0.01 |
| ATTTGGTGCT | 0.999 ± 0.018 |
| ATTTGGTTAG | 0.987 ± 0.025 |
| ATTTGTAAAG | 1 ± 0.034 |
| ATTTGTATGT | 0.963 ± 0.013 |
| ATTTGTGAGA | 0.9979 ± 0.0051 |
| ATTTGTGCAG | 0.954 ± 0.013 |
| ATTTGTGTGG | 0.973 ± 0.021 |
| ATTTGTTAGA | 1.03 ± 0.021 |
| ATTTGTTTAC | 1.011 ± 0.0065 |
| ATTTGTTTAT | 1.09 ± 0.17 |
| ATTTGTTTTG | 0.997 ± 0.053 |
| ATTTTAAGTA | 0.987 ± 0.031 |
| ATTTTAGAAT | 1.02 ± 0.03 |
| ATTTTATGAC | 1.008 ± 0.0025 |
| ATTTTATGCC | 1.01 ± 0.031 |
| ATTTTATTAG | 1.01 ± 0.021 |
| ATTTTCACC | 1.0095 ± 0.00081 |
| ATTTTCGAGT | 1 ± 0.021 |
| ATTTTCGGGG | 1.01 ± 0.039 |
| ATTTTCGTTG | 0.9666 ± 0.0095 |
| ATTTTGCGGA | 0.968 ± 0.013 |
| ATTTTGCTTT | 0.965 ± 0.021 |

| Sequence | switch fluorescence ratio |
| --- | --- |
| ATTTTGGCAA | 1.42 ± 0.3 |
| ATTTTGGCTT | 0.963 ± 0.037 |
| ATTTTGGGTT | 1 ± 0.022 |
| ATTTTGTATG | 0.976 ± 0.026 |
| ATTTTGTCCA | 1.02 ± 0.021 |
| ATTTTGTCTC | 1.01 ± 0.013 |
| ATTTTTAGGC | 1.11 ± 0.11 |
| ATTTTTAGTG | 1.008 ± 0.0068 |
| ATTTTTATGG | 0.996 ± 0.036 |
| ATTTTTATTT | 1.07 ± 0.12 |
| ATTTTTCGTT | 1 ± 0.03 |
| ATTTTTCTAG | 1.01 ± 0.03 |
| ATTTTTCTGC | 1.03 ± 0.039 |
| ATTTTTGAGA | 0.986 ± 0.017 |
| ATTTTTGAGG | 1.02 ± 0.017 |
| ATTTTTGGCG | 0.9867 ± 0.0088 |
| ATTTTTGGGC | 0.993 ± 0.024 |
| ATTTTTGGTT | 1.01 ± 0.042 |
| ATTTTTTCGA | 0.981 ± 0.014 |
| ATTTTTTTT | 0.996 ± 0.024 |
| CAAAAAAAAA | 1 ± 0.017 |
| CAAAAAAATG | 0.999 ± 0.03 |
| CAAAAAGATT | 1.01 ± 0.017 |
| CAAAAAGGGG | 0.964 ± 0.039 |
| CAAAAATGTT | 1.17 ± 0.19 |
